The target in experiment [1] is T1, porcine CD163, membrane-bound form on porcine pulmonary alveolar macrophage (pPAM) WT cells (porcine, UniProt Q2VL90 47-1115).
T1 sequence: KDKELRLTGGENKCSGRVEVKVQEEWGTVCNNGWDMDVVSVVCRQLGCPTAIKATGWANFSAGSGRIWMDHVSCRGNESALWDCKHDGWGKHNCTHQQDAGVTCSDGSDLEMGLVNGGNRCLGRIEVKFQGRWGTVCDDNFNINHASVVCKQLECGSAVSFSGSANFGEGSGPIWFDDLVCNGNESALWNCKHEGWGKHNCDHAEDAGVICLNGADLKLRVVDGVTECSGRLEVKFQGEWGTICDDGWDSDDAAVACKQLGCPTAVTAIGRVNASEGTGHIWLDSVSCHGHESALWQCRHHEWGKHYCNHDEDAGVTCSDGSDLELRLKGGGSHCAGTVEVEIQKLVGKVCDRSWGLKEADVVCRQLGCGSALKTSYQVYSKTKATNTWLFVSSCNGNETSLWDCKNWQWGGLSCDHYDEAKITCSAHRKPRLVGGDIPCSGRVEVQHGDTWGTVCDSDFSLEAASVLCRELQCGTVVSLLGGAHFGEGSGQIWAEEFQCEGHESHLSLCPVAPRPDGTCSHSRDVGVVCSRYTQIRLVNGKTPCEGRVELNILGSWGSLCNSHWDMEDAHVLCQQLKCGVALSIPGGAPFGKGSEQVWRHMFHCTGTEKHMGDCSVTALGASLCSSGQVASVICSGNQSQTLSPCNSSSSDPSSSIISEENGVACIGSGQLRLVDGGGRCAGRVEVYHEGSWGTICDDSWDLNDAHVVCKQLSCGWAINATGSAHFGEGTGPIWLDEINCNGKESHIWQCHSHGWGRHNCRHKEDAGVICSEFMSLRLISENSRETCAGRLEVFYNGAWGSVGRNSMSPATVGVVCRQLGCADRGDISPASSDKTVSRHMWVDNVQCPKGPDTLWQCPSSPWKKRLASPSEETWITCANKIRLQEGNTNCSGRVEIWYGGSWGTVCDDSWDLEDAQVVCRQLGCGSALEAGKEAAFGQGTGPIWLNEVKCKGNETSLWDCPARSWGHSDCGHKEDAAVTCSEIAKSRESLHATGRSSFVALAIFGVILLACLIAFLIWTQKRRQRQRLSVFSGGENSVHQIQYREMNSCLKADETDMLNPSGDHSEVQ
Briefly: cell-based or functional assay.

The target of experiment [2] is T1, porcine CD163, membrane-bound form on …. Briefly: cell-based or functional assay. The source holds these as a separate data set.
For experiment [3] the target is unchanged. Briefly: dose-response FACS on pPAM WT cells, anti-FLAG-biotin and streptavidin R-PE detection. The procedure: Biparatopic and triparatopic antibody constructs in PBS (pH7.4) were diluted in a 3-fold serial dilutions from 150 nM down to 0.023 nM in FACS buffer (0.5% FBS, 0.5 mM EDTA in 1×PBS pH7.4). Biparatopic and triparatopic candidates were incubated with anti-FLAG-Biotin (Sigma, Cat. nr. F9291), for 30 min on ice with shaking. This mixture was added to pPAM WT cells and incubated for 60 min on ice with gentle shaking. Cells were washed 3×with 150 μl/well of FACS buffer and incubated with 50 μl/well of the secondary detection reagent Streptavidin R-P.E. conjugate antibody (Invitrogen, Cat. nr. SA10044) for 30 min on ice with shaking and protected from light. Cells were then washed 3× with 150 μl/well of FACS Buffer and resuspended in 50 μl/well of FACS buffer to be measured on a FACS machine (Attune™ N×T), and a total of 10000 cells were acquired per sample.

Experiment [4] concerns the target T2, porcine CD163 with deletion of SRCR domain 5, on pPAMΔ5 cells (porcine, UniProt Q2VL90 47-1115).
T2 construct: also called pPAMΔ5 domain cells; pPAMΔ5 WT cells
T2 sequence: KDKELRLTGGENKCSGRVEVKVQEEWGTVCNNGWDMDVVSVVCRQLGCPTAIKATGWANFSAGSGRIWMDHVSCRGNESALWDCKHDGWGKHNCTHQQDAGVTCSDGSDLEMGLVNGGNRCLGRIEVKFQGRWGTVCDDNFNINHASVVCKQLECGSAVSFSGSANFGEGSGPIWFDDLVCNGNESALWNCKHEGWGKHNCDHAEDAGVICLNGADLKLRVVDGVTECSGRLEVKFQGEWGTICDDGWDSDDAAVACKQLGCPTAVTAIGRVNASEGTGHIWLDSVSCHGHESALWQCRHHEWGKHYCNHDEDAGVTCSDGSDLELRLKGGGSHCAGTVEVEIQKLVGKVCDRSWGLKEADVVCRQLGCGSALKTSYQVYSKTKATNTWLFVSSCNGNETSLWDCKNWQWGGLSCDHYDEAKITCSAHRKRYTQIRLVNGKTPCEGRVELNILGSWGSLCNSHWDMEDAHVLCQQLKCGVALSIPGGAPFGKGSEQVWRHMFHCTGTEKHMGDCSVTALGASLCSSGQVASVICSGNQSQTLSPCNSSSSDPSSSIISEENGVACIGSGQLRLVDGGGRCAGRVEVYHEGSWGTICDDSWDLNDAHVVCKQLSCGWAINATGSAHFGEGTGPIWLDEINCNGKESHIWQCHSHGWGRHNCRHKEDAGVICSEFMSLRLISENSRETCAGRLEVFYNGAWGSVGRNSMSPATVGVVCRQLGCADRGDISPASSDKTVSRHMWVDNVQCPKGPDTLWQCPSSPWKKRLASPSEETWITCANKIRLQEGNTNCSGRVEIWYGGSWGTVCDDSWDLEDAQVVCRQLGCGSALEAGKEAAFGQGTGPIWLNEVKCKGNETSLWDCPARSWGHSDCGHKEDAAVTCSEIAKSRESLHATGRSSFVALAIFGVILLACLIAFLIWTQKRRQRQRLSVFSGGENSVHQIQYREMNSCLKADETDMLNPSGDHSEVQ
Briefly: P.E. FACS screening on pPAMΔ5 cells.

The target of experiment [5] is T1, porcine CD163, membrane-bound form on …. Briefly: P.E. FACS screening on pPAM WT cells.

B1: 17B11 + 03E11 + 03D03 2(G4S) triparatopic VHH construct (bispecific antibody)
chain: QVQLVESGGGLVQAGGSLRLSCAASGRTFSSYAMGWFRQTPGKDREFVARIGWTGGTTIYADSVKGRFTISRDNAKNTVYLQMNSLKPEDTAVYYCAADQAGWRTAGVRNTYEYDYWGQGTQVTVSSGGGGSGGGGSQVQLQESGGGLVQVGSSLRLSCVTSGRTPSRYVMGWFRQAPGQEREFVAAISWSGRAPYADSVKGRFTISRDNAKNTVYLQMNSLKPEDTGVYYCAGGEGAIKWTTLDAYDYWGQGTQVTVSSGGGGSGGGGSQLQLVESGGGLVQPGGSLRLSCAASGFTLDDYTIGWFRQAPGKEREGVSCINSITSNTYYADSVKGRFTISRDNAKNTVYLQMNSLTAEDTAIYYCAADSGLFSGSSCLKYRAMRFGSWGQGTQVTVSS
notes: Triparatopic; also called Tri-10; Triparatopic-10; not shown: FLAG and His tags
In general, EC50 refers to the concentration that produces a half-maximal response. A high value points to weaker potency. In the case of B1, in experiment [1], the “IC50, PRRSV1 LT3 infection assay, high CD163 porcine serum” value is 4.02 nM and the “IC50, PRRSV1 LT3 infection assay, low CD163 porcine serum” value worked out at 3.41 nM. Moreover, in experiment [2], the “IC50, PRRSV2 strain MN184 infection assay, 10% FBS” value came out at 2.84 nM; the “IC50, PRRSV2 strain NA174 infection assay, high CD163 porcine serum” value is 7.6 nM; the “IC50, PRRSV2 strain NA174 infection assay, low CD163 porcine serum” value was 3.94 nM. In experiment [3], this molecule returned a concentration giving a half-maximal response (EC50) of 11.6 nM.

B2: Clone 19-H03E11 VHH antibody (VHH)
VHH: QVQLQESGGGLVQVGSSLRLSCVTSGRTPSRYVMGWFRQAPGQEREFVAAISWSGRAPYADSVKGRFTISRDNAKNTVYLQMNSLKPEDTGVYYCAGGEGAIKWTTLDAYDYWGQGTQVTVSS
notes: Tested as periplasmic extract in ELISA and FACS screening; also called VHH 019 (3E11)
On to B2, for which the binding result in experiment [4] was “no binding”; in experiment [5], “binds”.

B3: Clone 17-H03D03 VHH antibody (VHH)
VHH: QLQLVESGGGLVQPGGSLRLSCAASGFTLDDYTIGWFRQAPGKEREGVSCINSITSNTYYADSVKGRFTISRDNAKNTVYLQMNSLTAEDTAIYYCAADSGLFSGSSCLKYRAMRFGSWGQGTQVTVSS
notes: Tested as periplasmic extract in ELISA and FACS screening; also called VHH 017 (3D03)
On to B3, for which the results for the binding result in experiment [4] and in experiment [5] were “no binding” and “binds”, respectively.

(Values after patent US20260085129A1 (ECO ANIMAL HEALTH, published 2026).)
